Laboratory results as given in article PMC7585734, “Site-specific epitope insertion into recombinant proteins using the MAP tag system” (Journal of Biochemistry, 2020).
Changes are numbered by the printed parent chain. Numbers in names are those of the source. Each block holds one binder with its values, some of them ahead of it.

Key:
[1] = molecular target: T1, MAP tag peptide (14-residue) (Mus musculus); test: pull-down; purified Fv-clasp samples mixed with MAP14 peptide-conjugated Sepharose, 1 h at room temperature; washed three times with TBS (20 mM Tris pH 7.5, 150 mM NaCl); 15% SDS-PAGE, Coomassie; conditions: both partners purified
T1 construct: 14-residue MAP tag derived from mouse podoplanin; also called MAP14 peptide; MAP peptide; source: synthetic peptide; also conjugated to Sepharose
T1 chain: GDGMVPPGIEDKIT

Fn10-nMAP14 = molecular target: T2, Fn10-nMAP14 (Mus musculus (MAP tag), chimera); test: pull-down; PMab-1 immobilised on Sepharose; culture supernatants of transfected Expi293F cells; washed three times with TBS; 12.5% non-reducing SDS-PAGE, Coomassie; conditions: one partner purified
T2 construct: original 14-residue MAP tag derived from mouse podoplanin, at the N-terminus; tenth fibronectin type III domain (Fn10) of human fibronectin, residues 1417-1509; disulphide-linked dimer via the Fc; also called N-terminally MAP-tagged Fn10-Fc; source: Expi293F, transiently transfected, culture supernatant
T2 chain: GDGMVPPGIEDKIT

Fn10-nMAP8 = molecular target: T3, Fn10-nMAP8 (Mus musculus (MAP tag), chimera); test: as above; conditions: one partner purified
T3 construct: MAP8 tag, the N-terminal 8 residues of the MAP tag derived from mouse podoplanin, at the N-terminus; tenth fibronectin type III domain (Fn10) of human fibronectin, residues 1417-1509; disulphide-linked dimer via the Fc; also called N-terminally MAP-tagged Fn10-Fc; source: Expi293F, transiently transfected, culture supernatant
T3 chain: GDGMVPPG

Fn10-iFG-G = molecular target: T4, Fn10-iFG-G (mouse podoplanin MAP8 tag (carried in …, chimera)); test: as above; conditions: one partner purified
T4 construct: Fn10 of human fibronectin up to Gly1494 of the FG loop; extra Gly residue(s) before the tag; MAP8 tag, derived from mouse podoplanin; extra Gly residue(s) after the tag; Fn10 of human fibronectin from Ser1496; As Fn10-iFG with the inserted MAP8 flanked by extra Gly residues at both ends; source: Expi293F, transiently transfected, culture supernatant
T4 chain: GDGMVPPG

binding result [1]: binds
B1: PMab-1(QQ) Fv-clasp (other, rat | human)
VH: QIQLQQSGTVLVKPASSVKISCKASGYSFTSHYMHWIRQQPGQGLEWIGWISPEQGNTKYNQKFDGKATLTADKSSSIAYMQLSSLTSEDSAVYFCVSWEDWSAYWGQGTLVTVCS
VL: DIVLTQSPALTVSLGQRATISCKTNQNVDYYGNSYVHWYQQKPGQKPKLLIYLASNLASGIPARFSGRGSGTDFTLTIDPVEAADTATYYCQQSRDLPNTFGAGTKLELK
notes: VH domain of rat anti-MAP monoclonal antibody PMab-1; SARAH domain of human Mst1 (anti-parallel coiled coil of the Fv-clasp format); VL domain (kappa) of rat anti-MAP monoclonal antibody PMab-1; SARAH domain of human Mst1 with S37C; Fv-clasp(v2) format, non-tagged version; also called PMab-1(QQ) Fv-clasp mutant; PMab-1VH(S112C)-SARAH with N43Q and N54Q + PMab-1VL-SARAH(S37C)

binding result (Fn10-nMAP14): binds
binding result (Fn10-nMAP8): binds
binding result (Fn10-iFG-G): binds
B2: PMab-1, rat anti-MAP monoclonal antibody (IgG2a, kappa) (antibody, V domains shown)
VH: B1 VH with Q43N, Q55N, C115S
VL: B1 VL
notes: VH of PMab-1; as the VH of m1 (PDB 6lz4, VH-SARAH chain) but with Asn43, Asn54 and Ser112 of the parent antibody; constant region of rat IgG2a heavy chain; VL of PMab-1; as the VL of m1 (PDB 6lz4, VL-SARAH chain); constant region of rat kappa light chain; Whole antibody; immobilised on Sepharose for pull-downs, used at 1.0 ug/ml in flow cytometry; copies: 2 + 2

binding result [1]: binds
B3: PMab-1 Fv-clasp (other, rat | human)
VH: B1 VH with Q43N, Q55N
VL: B1 VL
notes: VH domain of PMab-1 with S112C; as the VH of m1 (PDB 6lz4, VH-SARAH chain) but with Asn at 43 and 54 instead of the Gln of the entry; C112 is already in the entry; SARAH domain of human Mst1; VL domain (kappa) of PMab-1; as the VL of m1 (PDB 6lz4, VL-SARAH chain); SARAH domain of human Mst1 with S37C; as in the VL-SARAH chain of m1 (PDB 6lz4), which already holds the Cys; Parent of m1, without …
